# Reference: PMC3472187, “Crystal structure of HutZ, a heme storage protein from Vibrio cholerae: A structural mismatch observed in the region of high sequence conservation” (BMC Structural Biology, 2012)
# B1: HutZ (residues 13-150, His tagged) (domain or fragment)
# chain: RLEPEIKEFRQERKTLQLATVDAQGRPNVSYAPFVQNQEGYFVLISHIARHARNLEVNPQVSIMMIEDETEAKQLFARKRLTFDAVASMVERDSELWCQVIAQMGERFGEIIDGLSQLQDFMLFRLQPEQGLFVKGFG
# notes: also called truncated HutZ; source: E. coli BL21 (DE3), purified (Ni-chelating Sepharose, Source 15Q, Superdex-200)
# Biological target: the molecule itself
# Experiment: SEC
protein,measurement,value
B1,stoichiometry N,2
